Experimental data published in article PMC12041390, “Nanobody-mediated targeting of Plasmodium falciparum PfPIMMS43 can block malaria transmission in mosquitoes” (Communications Biology, 2025).

B1: PfPIMMS43 nanobody C12 (VHH)
VHH: EVQLVESGGGLVQAGGSLRLSCVDSGRTLSSYTMGWFRQAPGKEREFVAAVHYTGRRTYYADSVKGRFTISRDNDKNTVLLQMNSLKPEDTAVYYCAATEPPHSDYSTRLYNYHYWGQGTQVTVSS
notes: llama VHH; From an immune llama library (Eurogentec, pQ81 phagemid)
B2: PfPIMMS43 nanobody E2 (VHH)
VHH: EVQLVESGGGLVQAGGSLRLSCAASGLTFNGDSMGWFRQAPGKEREFVAAIRWNEVAYYADFVKGRFTISRDNAKNTVTLQMNSLKPEDTAVYYCGAGVRAYSYTTRLTSASEYTYWGQGTQVTVSS
notes: llama VHH; From an immune llama library (Eurogentec, pQ81 phagemid); CDR2 of 7 amino acids
B3: PfPIMMS43 nanobody G9 (VHH)
VHH: EVQLVESGGGLVQAGGSLRLSCAASEGTFSDYGMGWFRQAPGKEREFVASISWSGGRTGYRSSVKGRFTISRDNAKNTVYLQMNSLKPEDTAVYYCGAMSKYYRGDWSSRVTNYDDWGQGTQVTVSS
notes: llama VHH; From an immune llama library (Eurogentec, pQ81 phagemid); CDR3 of 20 amino acids
B4: PfPIMMS43 nanobody A3 (VHH)
VHH: EVQLVESGGGLVQPGGSLRLSCAASGSIFDKNGMGWFRQPPGRQRELVASITTDGNKHYGDDAKGRFTISRDIAKKTAYLQMNSLKPEDTAVYYCATTRGNYYSKSPPPIYDYYYWGQGTQVTVSS
notes: as for B2
B5: PfPIMMS43 nanobody A5 (VHH)
VHH: EVQLVESGGGLVQAGVSLRLSCAASGRSLSNYAMGWFRQAPGKEREFVASITGSGSSTYYLNSVKGRFIISKDNAKNTVYLQMNSLKPEDTAVYYCAADSTGVARYTNRYDYWGQGTRVTVSS
notes: as for B1
B6: PfPIMMS43 nanobody H6 (VHH)
VHH: EVQLVESGGALVQAGNSLRLSCAASGRTFRSYVMGWFRQAPEKEREFVARIGWSAGSTYYTDSVKGRFTISRDDAKNTVYLQMNSLKPEDTAVYYCAAGRGYSDYDPSVGYGYWGQGTQVTVSS
notes: as for B1
B7: PfPIMMS43 nanobody B11 (VHH)
VHH: EVQLVESGGGLVRAGDSLRLSCAASGTPLSSYTMGWFRQAPGKEREFVAASCWRGGSAYDADSIEGRFTISRDNAKNTVYLQMNSLKPEDTAVYYCAAVFAYICSSYGNRSPSRYGYWGQGTQVTVSS
notes: as for B1
B8: PfPIMMS43 nanobody E5 (VHH)
VHH: EVQLVESGGGLVQAGGSLRLSCAASGIHFNFKAMAWYRQAPGKQRELVAAIAPDDDTNYADSVKGRFTISRDNAKNTVYLQMNSLKPEDTAVYYCNTRIRIDYWGQGTQVTVSS
notes: llama VHH; From an immune llama library (Eurogentec, pQ81 phagemid); CDR2 of 7 and CDR3 of 8 amino acids
B9: PfPIMMS43 nanobody E1 (VHH)
VHH: EVQLVESGGGLVQAGDSLRLSCAASDSTFSIYVMGWFRQAPGKEREFVAAITGSGGNTNYADSVKGRFTVSRDNAKHTVYLQMNSLKPEDAAVYYCAAGGSYSRSSLNYPYWGQGTQVTVSS
notes: as for B1

target: T1, endogenous PfPIMMS43 produced by P. falciparum NF54 ookinetes (Plasmodium falciparum NF54 (entry 3D7, …, UniProt C6KT40)); assay: far-Western, overlay or dot blot; reduced lysates of P. falciparum NF54-infected An. coluzzii midguts (18 h post blood meal) on 10% SDS-PAGE, blotted to PVDF, probed with nanobody, detected with anti-MYC antibody; non-infected blood-fed midguts as control; conditions: one partner purified
T1 construct: PfPIMMS43 (PSOP25) of Plasmodium falciparum NF54, a 505-amino acid protein with an N-terminal signal peptide and a C-terminal GPI anchor; seen as a ~60 kDa band; GPI-anchored surface protein of ookinetes; also called ~60 kDa PfPIMMS43 protein; PSOP25; source: endogenous, lysate of P. falciparum NF54-infected An. coluzzii midguts, 18 h post blood feeding
T1 sequence (C6KT40 25-505): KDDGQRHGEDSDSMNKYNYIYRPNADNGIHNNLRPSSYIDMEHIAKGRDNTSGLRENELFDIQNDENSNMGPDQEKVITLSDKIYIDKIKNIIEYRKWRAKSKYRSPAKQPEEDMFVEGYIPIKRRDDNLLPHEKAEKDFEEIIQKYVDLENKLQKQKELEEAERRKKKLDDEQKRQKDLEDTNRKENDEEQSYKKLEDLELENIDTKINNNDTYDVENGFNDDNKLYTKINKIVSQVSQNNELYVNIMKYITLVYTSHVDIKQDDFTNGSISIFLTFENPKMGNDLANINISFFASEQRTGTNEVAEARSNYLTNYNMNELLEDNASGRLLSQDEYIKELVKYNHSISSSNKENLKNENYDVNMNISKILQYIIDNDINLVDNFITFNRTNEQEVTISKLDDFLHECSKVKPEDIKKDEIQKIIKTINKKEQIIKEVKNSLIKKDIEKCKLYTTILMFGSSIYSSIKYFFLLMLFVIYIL

Binder	binding result
B1	binds

target: T2, recombinant Thioredoxin-His-tagged PfPIMMS43 (amino acids 26-481), full-length (FL) recombinant PfPIMMS43 (Plasmodium falciparum, 3D7 entry (NF54 …, UniProt C6KT40)); assay: ELISA; dose response ELISA; MaxiSorp plates coated with 2 ug/mL recombinant PfPIMMS43 in PBS overnight, blocked with 4% skimmed milk; VHH from 1000 nM in serial 1:10 dilutions, 1 h at room temperature; detected with rabbit anti-VHH and donkey anti-rabbit HRP, OPD, 490 nm; conditions: both partners purified
T2 construct: PfPIMMS43 (PSOP25) of Plasmodium falciparum, a 505-amino acid protein; E. coli codon-optimised; the methods give 25-481; pET-32b vector; Results give 26-481, methods 25-481; also called TRX-His-PfPIMMS43; PSOP25; not shown: Thioredoxin (TRX), N-terminal, kept; His6, N-terminal, kept; His6, C-terminal, kept
T2 sequence (C6KT40 26-481): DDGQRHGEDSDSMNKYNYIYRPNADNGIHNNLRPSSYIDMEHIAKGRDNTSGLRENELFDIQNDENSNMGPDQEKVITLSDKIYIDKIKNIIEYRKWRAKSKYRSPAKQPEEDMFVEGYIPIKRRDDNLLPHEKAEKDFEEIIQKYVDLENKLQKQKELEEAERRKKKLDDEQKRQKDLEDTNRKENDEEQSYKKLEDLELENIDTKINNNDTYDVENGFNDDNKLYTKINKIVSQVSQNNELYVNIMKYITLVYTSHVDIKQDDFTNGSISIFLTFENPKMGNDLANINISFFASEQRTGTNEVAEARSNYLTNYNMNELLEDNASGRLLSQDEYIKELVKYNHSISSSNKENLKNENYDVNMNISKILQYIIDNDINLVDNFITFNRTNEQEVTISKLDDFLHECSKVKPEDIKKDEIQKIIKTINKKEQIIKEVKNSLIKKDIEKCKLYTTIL

Binder	binding affinity (dose response ELISA) [nM]
B2	8
B1	6
B3	3
B4	> 50
B5	> 50
B6	> 50
B7	> 50
B8	5
B9	> 50
